The target in this test is elastase (UniProt P00772).

As to tutuilamide A (peptide), the inhibition of the activity of elastase (IC50) was found to be 4 nM.
tutuilamide B (peptide) showed an inhibition of the activity of elastase (IC50) of 3.6 nM.

For the origin of these results see publication PMC7024214.
